According to article PMC6459835, “The RNA binding activity of the first identified trypanosome protein with Z-DNA-binding domains”:

Key:
Test in all cases: EMSA
Conditions in all cases: RBB50: 20 mM Tris-HCl pH 7.6, 50 mM KCl, 5 mM MgCl2, 100 mg/mL BSA (so in the source), 10% glycerol, 1 mM DTT, plus 100 mM KCl and 20 U RNasin; 20 ul, 30 min, RT …
[1] = tested on: RBP7910 W188A (Trypanosoma brucei)
[2] = tested on: RBP7910 W79A (Trypanosoma brucei)
[3] = tested on: RBP7910 T52A (Trypanosoma brucei)
[4] = tested on: RBP7910 W56A (Trypanosoma brucei)
[5] = tested on: RBP7910 P76A (Trypanosoma brucei)
[6] = tested on: RBP7910 R53A (Trypanosoma brucei)
[7] = tested on: RBP7910 P164A (Trypanosoma brucei)
[8] = tested on: RBP7910 F167A (Trypanosoma brucei)
[9] = tested on: RBP7910 P77A (Trypanosoma brucei)

## gA6[14] (delta16G) gRNA with U-tail
[1]
  Kd: 0.55 nM
[2]
  Kd: 0.32 nM
[3]
  Kd: 0.61 nM
[4]
  Kd: 0.37 nM
[5]
  Kd: 0.18 nM
[6]
  Kd: 0.81 nM
[7]
  Kd: 0.27 nM
[8]
  Kd: 0.3 nM
[9]
  Kd: 0.3 nM
